Measurements published in patent publication US20240083983A1 (Regeneron, published 2024).

Target: Influenza B hemagglutinin (HA) from B/Florida/4/2006 (Influenza B virus, strain …, UniProt P03463 16-583)

B1: mAb35490 (antibody, human IgG1, kappa, V domains shown)
VH: EVQLVESGGDLVQPGGSLRLSCAASGFTVSSNYMSWVRQVPGKGLDWVSVTYSGGNTYYADSVKGRFTISRHNSKNTLYLQMNSLRIEDTAVYYCATVPSFHGMDVWGQGTTVTVSS
VL: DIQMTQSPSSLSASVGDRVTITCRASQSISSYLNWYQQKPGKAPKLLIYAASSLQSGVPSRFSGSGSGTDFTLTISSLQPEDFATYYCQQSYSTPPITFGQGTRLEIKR
  EC50: 0.761 nM
